From patent publication US12383628B2 (priority 2016, dated 2025) come the findings set out here.

Square brackets hold non-standard residues; d marks the D form. Ends that are not written are not given here. Peptide text beside a SMILES is read from it. Phe(3-Br) = N[C@@H](Cc1cccc(Br)c1)C(=O)O; Phe(4-Br) = N[C@@H](Cc1ccc(Br)cc1)C(=O)O; Phe(3-I) = N[C@@H](Cc1cccc(I)c1)C(=O)O; 2Nal = N[C@@H](Cc1ccc2ccccc2c1)C(=O)O; β3hF = N[C@H](CC(=O)O)Cc1ccccc1; Cha = N[C@@H](CC1CCCCC1)C(=O)O; Phe∗ = not defined here; Trp∗ = not defined here

One series can be described thus: Peptide gelation (tilted tube / inverted vial test, minimum gelation concentration).
Details: not given
Format: physicochemical. The protocol: The peptide gelation occurred by dissolving the TFA salt of the hexapeptide (2 mg) in 100 μL of PBS solution (pH 7.4) or physiological saline solution (0.9% NaCl).
Both peptides 2 and 4 (Table 1) gave a transparent gel in the same conditions (PBS 10 mM at pH 7.4 with a minimum gelation concentration of 24 mM; 2% w/v). To evaluate the mechanical properties of these hydrogels in a more quantitative manner, rheological experiments were performed. The viscoelastic properties of the peptide hydrogels were measured by dynamic rheometry at 37° C. This technique allowed to measure the storage modulus G′ (corresponding to the material's stiffness or rigidity), loss modulus G″ (corresponding to the viscous properties of the material) and loss factor tan (o) (ratio of G″ over G′). According to the Winter-Chambon criterion, a material reaches gelation in rheological terms if the phase angle o gets frequency-independent (F. Chambon et al., 1987 and H. Winter et al., 1987).
The peptide gelation occurred by dissolving the TFA salt of the peptide in 100 μL of PBS solution or physiological saline solution (0.9% NaCl) (pH 7.4).
The peptide gelation occurs by dissolving the TFA salt of the hydrogelator (1 or 2 mg) in 100 μL of aqueous media, PBS solution (pH 7.4) or physiological saline solution (0.9% NaCl). After successive vortexing and sonication, the gel is left to rest overnight at room temperature.
The hydrogelation was realized under physiologically relevant conditions, namely via the addition of phosphate-buffered saline (PBS) or sterile physiological saline solution (0.9% NaCl). The needed amount of hydrogelator was weighed in an Eppendorf® and solubilized by the addition of the above solutions. After vortex and sonication steps, the resulting solution was left at room temperature until gelation occurred. The gelation was qualitatively verified by the inverted vial test (if no gravitational flow was visible the gelation was considered successful). It can be noticed that all peptide hydrogelators depicted formed gels in PBS and saline solution at a concentration of 1 to 2% w/v.
Take “SEQ ID NO: 56, modified by the inclusion of an ester as linker: biogel MOJ-02 modified by an ester linker (spacer) between the hydrogelator part and the biological active ingredient (Y[dR]FFQ[β3hF]FQFK-NH2; not fully specified (residue 9); also: ester linker between hydrogelator part and active ingredient, position not given here)”: the Biogel formation entry was “able to form a biogel spontaneously”.

Still in this series, the particulars now being: 2% w/v, PBS 10 mM, pH 7.4.
For “H-VEVQVK-NH2 [compound 7, H-Val-Glu-Val-Gln-Val-Lys-NH2]”, the Gelation behaviour result is recorded as “remained in solution”. Consider “H-IEIQIK-NH2 [compound 5, H-Ile-Glu-Ile-Gln-Ile-Lys-NH2]”, for which the Gelation behaviour result was “formed gels”. For the molecule “H-Leu-Glu-Leu-Gln-Leu-Lys-NH2 (H-LELQLK-NH2) [peptide 6]”, the Gelation behaviour entry was “remained in solution”. Turning to “Ac-Phe-Glu-Phe*-Gln-Phe-Lys-NH2 [peptide 3]”, the Gelation behaviour entry is “macroscopic aggregation”. Still for that read-out and setting: the value for “H-AEAQAK-NH2 [compound 8, H-Ala-Glu-Ala-Gln-Ala-Lys-NH2]” was “remained in solution”.

For `NCCCC[C@H](NC(=O)[C@H](CC1CCCCC1)NC(=O)[C@H](CCC(N)=O)NC(=O)[C@H](CC1CCCCC1)NC(=O)[C@H](CCC(=O)O)NC(=O)[C@@H](N)CC1CCCCC1)C(N)=O` [compound 9, H-Cha-Glu-Cha-Gln-Cha-Lys-NH2] (H-[Cha]E[Cha]Q[Cha]K-NH2), the Gelation behaviour entry was “formed gels”.

The series is the same for the next values; noted with them: in PBS; '/' = no gel.
On to `NCCCC[C@H](NC(=O)[C@H](Cc1cccc(Br)c1)NC(=O)[C@H](CCC(N)=O)NC(=O)[C@H](Cc1cccc(Br)c1)NC(=O)[C@H](CCC(N)=O)NC(=O)[C@@H](N)Cc1ccccc1)C(N)=O` [compound 32, H-Phe-Gln-Phe(3Br)-Gln-Phe(3Br)-Lys-NH2] (H-FQ[Phe(3-Br)]Q[Phe(3-Br)]K-NH2), for which the “Minimum gelation concentration (w/v % in PBS)” value is listed as 1-2 w/v %. `NCCCC[C@H](NC(=O)[C@H](Cc1cccc(I)c1)NC(=O)[C@H](CCC(N)=O)NC(=O)[C@H](Cc1ccccc1)NC(=O)[C@H](CCC(N)=O)NC(=O)[C@@H](N)Cc1ccccc1)C(N)=O` [compound 36, H-Phe-Gln-Phe-Gln-Phe(3I)-Lys-NH2] (H-FQFQ[Phe(3-I)]K-NH2): the “Minimum gelation concentration (w/v % in PBS)” value is given as 1-2 w/v %.

With “H-DLys-DPhe-DGln-DPhe*-DGlu-DPhe-NH2 (H-[dK][dF][dQ]F[dE][dF]-NH2; not fully specified (residue 4)) [compound 19]”, the “Minimum gelation concentration (w/v % in PBS)” value came to 2 w/v %. The same measure, in the same setting: the value for “H-Lys-Phe-Gln-Phe*-Glu-Phe-OH (H-KFQ[Phe∗]EF-OH; not fully specified; reading uncertain) [compound 26]” was 2 w/v %; that for `NCCCC[C@H](NC(=O)[C@H](Cc1ccc2ccccc2c1)NC(=O)[C@H](CCC(N)=O)NC(=O)[C@H](Cc1ccc2ccccc2c1)NC(=O)[C@H](CCC(=O)O)NC(=O)[C@@H](N)Cc1ccc2ccccc2c1)C(N)=O` [compound 13, H-(2-Nal)-Glu-(2-Nal)-Gln-(2-Nal)-Lys-NH2] (H-[2Nal]E[2Nal]Q[2Nal]K-NH2) was 2 w/v %. With “H-DLys-DPhe-DAsn-DPhe*-DGlu-DPhe-NH2 (H-[dK][dF][dN]F[dE][dF]-NH2; not fully specified (residue 4)) [compound 22]”, the “Minimum gelation concentration (w/v % in PBS)” value is given as 2 w/v %. Take “H-DLys-DPhe-DGlu-DPhe*-DGlu-DPhe-NH2 (H-[dK][dF][dE]F[dE][dF]-NH2; not fully specified (residue 4)) [compound 23]”: the “Minimum gelation concentration (w/v % in PBS)” value is listed as 2 w/v %.

“H-Phe-Glu-Phe*-Gln-Trp-Lys-NH2 (H-FE[Phe∗]QWK-NH2; not fully specified; reading uncertain) [compound 15]”: the “Minimum gelation concentration (w/v % in PBS)” value is listed as 2 w/v %. For the molecule “H-IEIQIK-NH2 [compound 5, H-Ile-Glu-Ile-Gln-Ile-Lys-NH2]”, the “Minimum gelation concentration (w/v % in PBS)” value is recorded as 2 w/v %. With `NCCCC[C@H](NC(=O)[C@H](Cc1ccc(Br)cc1)NC(=O)[C@H](CCC(N)=O)NC(=O)[C@H](Cc1ccc(Br)cc1)NC(=O)[C@H](CCC(N)=O)NC(=O)[C@@H](N)Cc1ccc(Br)cc1)C(N)=O` [compound 35, H-Phe(4Br)-Gln-Phe(4Br)-Gln-Phe(4Br)-Lys-NH2] (H-[Phe(4-Br)]Q[Phe(4-Br)]Q[Phe(4-Br)]K-NH2), the “Minimum gelation concentration (w/v % in PBS)” value is given as 1-2 w/v %. As to “H-DPhe-DGlu-DPhe*-DGln-DPhe-DLys-OH (H-[dF][dE]F[dQ][dF][dK]-OH; not fully specified (residue 3)) [compound 25]”, the “Minimum gelation concentration (w/v % in PBS)” value stood at 1 w/v %. Turning to “H-Phe-Glu-Phe*-Asn-Phe-Lys-NH2 (H-FE[Phe∗]NFK-NH2; not fully specified; reading uncertain) [compound 11]”, the “Minimum gelation concentration (w/v % in PBS)” value is 1 w/v %. As for `NCCCC[C@H](NC(=O)[C@H](Cc1cccc(I)c1)NC(=O)[C@H](CCC(N)=O)NC(=O)[C@H](Cc1cccc(I)c1)NC(=O)[C@H](CCC(N)=O)NC(=O)[C@@H](N)Cc1ccccc1)C(N)=O` [compound 37, H-Phe-Gln-Phe(3I)-Gln-Phe(3I)-Lys-NH2] (H-FQ[Phe(3-I)]Q[Phe(3-I)]K-NH2), the “Minimum gelation concentration (w/v % in PBS)” value is given as 1-2 w/v %. Consider `NCCCC[C@H](NC(=O)[C@H](Cc1ccccc1)NC(=O)[C@H](CCC(N)=O)NC(=O)[C@H](Cc1cccc(Br)c1)NC(=O)[C@H](CCC(N)=O)NC(=O)[C@@H](N)Cc1ccccc1)C(N)=O` [compound 34, H-Phe-Gln-Phe(3Br)-Gln-Phe-Lys-NH2] (H-FQ[Phe(3-Br)]QFK-NH2), for which the “Minimum gelation concentration (w/v % in PBS)” value is recorded as 1-2 w/v %. Still for that read-out and setting: the same measure for “H-Phe-Glu-Phe*-Lys-Phe-Ser-NH2 (H-FE[Phe∗]KFS-NH2; not fully specified; reading uncertain) [compound 20]”: 1 w/v %; for “H-DPhe-DGlu-DPhe*-DGln-DPhe-DLys-NH2 (H-[dF][dE]F[dQ][dF][dK]-NH2; not fully specified (residue 3)) [compound 17]”: 2 w/v %. For the molecule “H-Phe-Glu-Phe*-Asn-Phe-Lys-OH (H-FE[Phe∗]NFK-OH; not fully specified; reading uncertain) [compound 10]”, the “Minimum gelation concentration (w/v % in PBS)” value is given as 1 w/v %. In the case of “H-Trp-Glu-Phe*-Gln-Phe-Lys-NH2 (H-WE[Phe∗]QFK-NH2; not fully specified; reading uncertain) [compound 14]”, the “Minimum gelation concentration (w/v % in PBS)” value is given as 2 w/v %. “H-Phe-Glu-Trp*-Gln-Phe-Lys-NH2 (H-FE[Trp∗]QFK-NH2; not fully specified; reading uncertain) [compound 21]”: the “Minimum gelation concentration (w/v % in PBS)” value was 2 w/v %. `NCCCC[C@H](NC(=O)[C@H](CC1CCCCC1)NC(=O)[C@H](CCC(N)=O)NC(=O)[C@H](CC1CCCCC1)NC(=O)[C@H](CCC(=O)O)NC(=O)[C@@H](N)CC1CCCCC1)C(N)=O` [compound 9, H-Cha-Glu-Cha-Gln-Cha-Lys-NH2] (H-[Cha]E[Cha]Q[Cha]K-NH2): the “Minimum gelation concentration (w/v % in PBS)” value stood at 2 w/v %.

As for `NCCCC[C@H](NC(=O)[C@H](Cc1cccc(Br)c1)NC(=O)[C@H](CCC(N)=O)NC(=O)[C@H](Cc1ccccc1)NC(=O)[C@H](CCC(N)=O)NC(=O)[C@@H](N)Cc1ccccc1)C(N)=O` [compound 31, H-Phe-Gln-Phe-Gln-Phe(3Br)-Lys-NH2] (H-FQFQ[Phe(3-Br)]K-NH2), the “Minimum gelation concentration (w/v % in PBS)” value is 1-2 w/v %.
